Laboratory results reported in PMC7979924, “Lin28, a major translation reprogramming factor, gains access to YB-1-packaged mRNA through its cold-shock domain”.

What was measured:
Lin28-CSD = biological target: T1, Lin28-CSD (Homo sapiens, UniProt Q9H9Z2 32-136); test: NMR (1H-15N HSQC); 298 K; EMSA: 20 mM Tris pH 7.6, 40 mM NaCl, 0.5 mM DTT, room temperature, 30 min; NMR: 50 mM potassium phosphate pH 7.0, 50 uM 15N-protein, 298 K (C10) or 303 K (C20); conditions: protein: recombinant; tags: His6
T1 sequence: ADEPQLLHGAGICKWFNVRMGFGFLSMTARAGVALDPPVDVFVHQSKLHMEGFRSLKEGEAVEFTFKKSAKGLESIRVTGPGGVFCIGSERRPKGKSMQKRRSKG

YB-1-CSD = YB-1-CSD (Homo sapiens, UniProt P67809 1-180); test: NMR (1H-15N HSQC); 298 K; spectra stated as already published (ref 7); EMSA: 20 mM Tris pH 7.6, 40 mM NaCl, 0.5 mM DTT, room temperature, 30 min; NMR: 50 mM potassium phosphate pH 7.0, 50 uM 15N-protein, 298 K (C10) or 303 K (C20); conditions: protein: recombinant
YB-1-CSD, sequence (P67809 1-180): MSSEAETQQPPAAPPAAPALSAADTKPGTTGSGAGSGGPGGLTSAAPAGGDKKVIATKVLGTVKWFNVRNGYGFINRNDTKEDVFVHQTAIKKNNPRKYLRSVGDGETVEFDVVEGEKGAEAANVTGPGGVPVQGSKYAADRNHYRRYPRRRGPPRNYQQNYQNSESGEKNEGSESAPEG

B1: poly(C) DNA C10 (ssDNA)
DNA: CCCCCCCCCC
B1: binds (Lin28-CSD); binds (YB-1-CSD).
